Measurements from US20220380473A1, “ANTI-GAL3 ANTIBODIES AND USES THEREOF” (TrueBinding, Inc., priority 2019, published 2022).
Entries after “also recorded” stand apart in the source; their conditions may differ.

B1: 2D10.2B2: murine anti-Gal3 antibody (antibody, V domains shown)
VH: QVQLQQSGPELVKPGASVKISCKASGYTFTDYYINWVKQRPGQGLEWIGWIYPGSNDTKYNEKFKGKATLTVDTSSSTAYMQLGSLTSEDSAVYFCANYFGCSGWFFDVWGTGTTVTVSS
VL: DIVMTQAAFSNPVTLGTSASISCRSSKSLLHSDGITYLYWYLQRPGQSPQLLIYRMSNLASGVPDRFSGSGSGTDFTLRISRVEAEDVGVYYCAQMIEFPLTFGAGTILELK
B2: 13G4.2F8: murine anti-Gal3 antibody (antibody, V domains shown)
VH: QVQLQQPGAELVKPGASVKLSCKASGYTFTSYWMHWVKQRPGQGLEWIGMIHPNSGSTDYNEKFKNKATLNVDKSSSTAYIQLSSLTSEDSAVYYCTRWGIYYYARDYWGQGTTLTVSS
VL: DIVMTQSQKFMSTSVGERVSITCKASQNVGTNVAWYQQKAGQSLELLIYGASNRHTGVPDRFTGSGSGTDFTLTITNVQSEDMTNYFCEQYSNFPLTFGAGTKLELK
B3: 846.2H3: murine anti-Gal3 antibody (antibody, V domains shown)
VH: QIQLVQSGPELKKPGETVKISCKASGYTFTNYGMNWVKQAPGKGLKWMGWINTYTGEPSYADDFKGRFAFSLETSASTAYLQINNLKNEDMATYFCARWGGYDGDYYAMDYWGQGTSVTVSS
VL: NIMMTQSPSSLAVSAGEKVTMSCKSSQSVLYSSNQKNYLAWYQQKPGQSPKLLIYWASTRESGVPDRFTGSGSGTDFTLTISSVQPEDLAVYYCHQYLSSLTFGAGTKLELK
B4: IMT006-1: humanized anti-Gal3 antibody derived from 4A11.2B5 (antibody, V domains shown)
VH: QVQLVQSGAEVKKPGASVKVSCKASGYSFTNYYMHWVRQAPGQGLEWMGWIYPGSGNTNYNEKFQGRVTMTADTSISTAYMELSRLRSDDTAVYYCSTAPGGFDVWGQGTTVTVSS
VL: DIVMTQTPLSLSVTPGQPASISCKSSKSLLHSDGITYLYWYLQKPGQSPQLLIYRMSNLASGVPDRFSGSGSGTDFTLKISRVEAEDVGVYYCAQMLEFPLTFGQGTKLEIK
modifications: VH of IMT006-1; VL of IMT006-1
notes: humanized anti-Gal3 antibody derived from 4A11.2B5
B5: 13A12.2E5: murine anti-Gal3 antibody (antibody, V domains shown)
VH: QIQLVQSGPELKKPGETVKISCKTSGYKFKTYVMSWVKQAPGKALKWMGWINTYSGVPTYADDFKGRFAFSLETSASTAYLEIINLKNEDTATYFCARDGNYGDPMDYWGQGTSVTVSS
VL: DVVMTQTPLTLSVAIGQPASISCKSSQSLLYTNGKTYLNWLLQRPGQSPKRLIYLLSKLDSGVPDRFSASGSGTDFTLKISRVEAEDLGVYYCLQSTHFPLTFGAGTKLEMK

Key:
[1] = system: mouse unilateral ureteral obstruction (UUO) model of kidney fibrosis; assay: Mouse UUO model of kidney fibrosis (Example 32); format: in vivo; settings: treated one day before UUO; for KIM-1 levels / serum NGAL levels: vs isotype control; for picosirius red staining of kidney, image quantification: isotype 2.65%
Excerpt: To further evaluate the ability of GAL3-targeted antibodies with the ability to block TIM3-GAL3 assembly to impact fibrosis, we evaluated the impact of humanized IMT001-4 and IMT006-1 in the mouse unilateral ureteral obstruction (UUO) model of kidney fibrosis. Briefly, 8-week-old C57BL/6J male mice were divided into sham, UUO with HuIgG4−, and UUO with HuIMT001-4, HuIMT006-1, and UUO with metformin-treatment. HuIgG4, HuIMT001-4 and HuIMT006-1 were each administered by intraperitoneal route at 10 mg/kg Q2Dx3 whereas metformin (500 mg/kg/day) was administered to mice dissolved in drinking water. In some settings therapeutic antibodies or metformin was administered 1 day before UUO, whereas in other experiments therapeutic antibodies or metformin was administered 1 day after UUO. After 7 days of UUO surgery, mice were sacrificed, left kidney was harvested and fixed with 4% paraformaldehyde for immunohistochemistry (IHC) and blood was collected in Heparin-EDTA tubes for blood biochemistry analysis. Levels of plasma mouse TIM-1/KIM-1/HAVCR were measured using a commercial ELISA kit (Catalog #MKM100; R&D Systems, Minneapolis, Minn.) according to the protocol provided by the manufacturer. Levels of plasma mouse Lipocalin-2/NGAL were measured using a commercial ELISA kit (Catalog #DY1857; R&D Systems, Minneapolis, Minn.) according to the protocol provided by the manufacturer. 5 um sections of fixed kidney specimens were produced and processed for picosirius red staining as described for liver specimens above.
To evaluate the robustness of TIM3-GAL3 blocking antibodies in reducing kidney fibrosis, the ability of mIMT001 to inhibit fibrosis when administered one day after UUO surgery was evaluated. Following UUO surgery and treatment with isotype or control antibodies, kidney specimens were harvested and stained by IHC for Collagen 1a1 (Col1a1), a marker of kidney fibrosis.

Galectin-3 = Galectin-3 (Homo sapiens, UniProt P17931); assay: SPR (BiacoreT200) binding affinity; settings: 25° C., read-out: hGal-3 KD
Sequence of Galectin-3 (P17931 whole entry): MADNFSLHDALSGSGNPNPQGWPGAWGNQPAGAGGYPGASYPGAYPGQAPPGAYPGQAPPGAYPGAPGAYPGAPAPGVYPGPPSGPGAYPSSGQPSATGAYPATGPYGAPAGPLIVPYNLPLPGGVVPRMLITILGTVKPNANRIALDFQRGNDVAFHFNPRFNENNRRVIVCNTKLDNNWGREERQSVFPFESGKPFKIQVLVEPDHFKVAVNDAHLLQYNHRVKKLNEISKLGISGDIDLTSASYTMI
Protocol: GAL3-binding antibodies were evaluated for their binding affinity by SPR. Kinetics experiments were performed on BiacoreT200 at 25° C. in high performance mode. Ligand proteins, purified antibodies were captured onto a CM5 chip coupled with anti-human Fc or anti-mouse Fc antibody, three antibodies at a time onto flow cell #2, 3, and 4, respectively, while flow cell #1 was used as reference. The analyte Galectin-3 in HBS-EP buffer was injected over all four flow cells at concentrations of 100, 50, 25, 12.5, 6.25, 3.125 and 0 nM at a flow rate of 30 μL/min. The complex was allowed to associate and dissociate for 240 and 300 seconds, respectively. The surfaces were regenerated with a 30 second injection of 10 mM Glycine pH 1.7 (flow rate 30 μL/min). The data were fit to a simple 1:1 interaction model using the global data analysis option available within BiacoreT200 Evaluation software V2.0. The affinity of Gal3 monoclonal antibodies was confirmed to be […] 30 nM for all antibodies studied (Table 24.1). Antibodies with affinity less than 2E-7 were selected for further characterization.

[2] = molecular target: T1, association of GAL3 and TIM3 (Homo sapiens, UniProt P17931); assay: GAL3-TIM3 blocking ELISA (Examples 24, 27); format: binding; settings: for GAL3-TIM3 Blocking @ 3 ug/mL: 3 ug/mL antibody
T1 construct: full-length human Galectin-3 protein (Acro Biosystems, GA3-H5129); linker-spaced 6-histidine tag; purchased Acro Biosystems GA3-H5129 (Gal3); TM3-H5229 (TIM-3)
T1 sequence (P17931 2-250 limits assumed): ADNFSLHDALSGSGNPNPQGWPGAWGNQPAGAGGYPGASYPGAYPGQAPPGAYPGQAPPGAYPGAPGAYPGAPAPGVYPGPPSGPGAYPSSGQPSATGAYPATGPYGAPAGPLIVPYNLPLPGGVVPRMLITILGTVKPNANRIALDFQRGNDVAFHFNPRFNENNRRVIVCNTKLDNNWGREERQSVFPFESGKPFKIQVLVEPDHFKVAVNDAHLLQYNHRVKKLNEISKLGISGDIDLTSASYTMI
Protocol: Positively scoring wells were evaluated for the ability to block association of GAL3 and TIM3. To identify GAL3-targeted antibodies with the ability to block the interaction of GAL3 and TIM3, purified GAL3 and TIM3 proteins were incubated in the presence of GAL3-immunization hybridoma supernatants described above, or without antibody, and protein interaction was evaluated by ELISA. Human Galectin-3 protein (Acro Biosystems, GA3-H5129) was diluted in PBS (Corning, 21-030-CM) to a concentration of 3 μg/ml and added to the wells of a 96-well ELISA plate (Thermo Fisher, 44-2404-21). After incubating the plate at 4° C. overnight, the plate was washed three times with PBST (PBS with 0.05% Tween 20 [VWR, 0777]). The plate was then blocked for an hour with 2% BSA (EMD Millipore, 126609) in PBST at room temperature with gentle rocking. Thereafter, the 2% BSA in PBST was discarded and antibody or inhibitor (3-fold dilutions beginning at 20 μg/ml, 60 μg/ml, or 180 μM) in 2% BSA in PBST was added to the wells. Afterwards, 2 μg/ml of human TIM3 (Aero Biosystems, TM3-H5229) in 2% BSA in PBST was added to the antibody or inhibitor in the wells in a 1:1 ratio. The plate was incubated for an hour at room temperature with gentle rocking. Thereafter, the plate was washed three times with PBST, and 0.3 μg/ml of human TIM3 Biotinylated Antibody (R&D Systems, BAF2365) in 2% BSA in PBST was added to the wells. The plate was incubated for an hour with gentle rocking and then washed three times with PBST. Avidin-HRP (1:2000) was then added to the wells. The plate was incubated at room temperature for an hour with gentle rocking and then washed three times with PBST. TMB substrate (Thermo Scientific, 34029) was then added to each well. The reaction was stopped with 1M HCl (JT Baker, 5620-02) and read using a plate reader (Molecular Devices) at absorbance of 450 nm.

hGal3 peptide = assay: Gal3 peptide library ELISA (Example 25); format: binding, human; settings: for Epitope Mapping: hGal3 peptide No. bound; for Gal3 peptide bound: peptide array ELISA
Protocol: To identify the epitopes to which Gal3 antibodies with and without Gal3-TIM3 blocking activity bound, a library of 20 amino acid peptides representing portions of Gal3, summarized in Table 24.1, was produced and the ability to bind Gal3 antibodies was evaluated by ELISA.
At least 2 μg/ml of hGal3 peptide in 50 μl of PBS or 0.1 μg/ml of full-length human Gal3 protein (GenScript) and human Galectin-3 protein (Acro Biosystems, GA3-H5129) were diluted in PBS (Corning, 21-030-CM) to concentrations of at least 2 μg/ml or 0.1 μg/ml, respectively, and added to the wells of a 96-well ELISA plate (Thermo Fisher, 44-2404-21). After incubating the plate at 4° C. overnight, the plate was washed three times with PBST (PBS with 0.05% Tween 20 [VWR, 0777]). The plate was then blocked for an hour with 2% BSA (EMD Millipore, 126609) in PBST at room temperature with gentle rocking. Thereafter, the 2% BSA in PBST was discarded and human Galectin-3 hybridoma supernatants or antibodies were diluted in 2% BSA in PBST to concentrations of at least 0.1 μg/ml and added to the wells. The plate was incubated for an hour at room temperature with gentle rocking and then washed three times with PBST. Afterwards, Goat Anti-Mouse IgG-HRP (Jackson ImmunoResearch, 115-036-1461) or Goat Anti-Rat IgG HRP (abcam, ab205720) diluted in 2% BSA in PBST (1:4000) were added to the wells. The plate was incubated for 30 minutes to 1 hour at room temperature with gentle rocking and then washed three times with PB ST. TMB substrate (Thermo Scientific, 34029) was then added to each well. The reaction was stopped with 1M HCl (JT Baker, 5620-02) and read using a plate reader (Molecular Devices) at absorbance of 450 nm.

human Gal3-His = human Gal3-His (Homo sapiens, UniProt P17931); assay: Antibody binning by biolayer interferometry (Gator); format: binding; settings: antibody competition
Sequence of human Gal3-His (P17931 whole entry): as the sequence (P17931 whole entry) above
Protocol: To determine whether Gal3-binding antibodies with Gal3-TIM3 blocking activity bind to the same or overlapping regions of the Gal3 molecule, antibody binning assays were performed to assess the ability of antibodies to simultaneously bind Gal3. Amine-reactive probes were loaded onto a Gator biosensor (Probe Life, Palo Alto, Calif.), equilibrated in dH20 for 60 seconds, dipped into 100 μl EDC 0.2M/NHS 0.05M activation buffer for 30 seconds, then dipped into a solution of […] human Gal3-His in 10 mM NaOAc buffer, pH 5 until binding was saturated, and quenched in 1 M ethanolamine pH 8.5 for 300 seconds. Following Gal3-His loading, tips were dipped in 20 μg/mL saturating antibody, then successively dipped into 5 μg/mL competing antibody.

Molecule	picosirius red staining of kidney, qualitative [1]	KIM-1 levels [1]	serum NGAL levels [1]	picosirius red staining of kidney, image quantification [1] [%]	Kd (Galectin-3) [nM]	GAL3-TIM3 Blocking @ 3 ug/mL [2] [%]	Epitope Mapping (hGal3 peptide)	Gal3 peptide bound (hGal3 peptide)	Bin (human Gal3-His)	assembly of GAL3 and TIM3, % of levels observed in the absence of a GAL3-targeted antibody ([2]; 3 μg/mL (FIG. 24))	IC50 ([2]; titration series, purified GAL3 and TIM3) [nM]
CN(C)C(=N)N=C(N)N [metformin, reference compound]	substantial reductions in picosirius red staining	the reduction was not statistically significant	significantly impact NGAL levels	1.83							
B1					0.753	86	6	peptide 6	3		
B2					2.53	0	Non-linear				
B3					10.2	100	6	peptide 6	3	less than 5%	
B4	substantial reductions in picosirius red staining	significantly reduced	significant reductions in serum NGAL levels	1.26							26.5
B5					8.2	35		peptide 4; also recorded: peptide 6			
